Measurements published in patent publication US20170174756A1 (AstraZeneca / MedImmune, published 2017).
Values joined by “and” are separate entries in the source; they are usually repeats but may differ in a detail not shown here. Equal values may be shown once.

Target: T1, Biotin Ang2 (R & D Systems) (UniProt O15123 19-496, biotinylated (sites not given))
T1 sequence (looked up): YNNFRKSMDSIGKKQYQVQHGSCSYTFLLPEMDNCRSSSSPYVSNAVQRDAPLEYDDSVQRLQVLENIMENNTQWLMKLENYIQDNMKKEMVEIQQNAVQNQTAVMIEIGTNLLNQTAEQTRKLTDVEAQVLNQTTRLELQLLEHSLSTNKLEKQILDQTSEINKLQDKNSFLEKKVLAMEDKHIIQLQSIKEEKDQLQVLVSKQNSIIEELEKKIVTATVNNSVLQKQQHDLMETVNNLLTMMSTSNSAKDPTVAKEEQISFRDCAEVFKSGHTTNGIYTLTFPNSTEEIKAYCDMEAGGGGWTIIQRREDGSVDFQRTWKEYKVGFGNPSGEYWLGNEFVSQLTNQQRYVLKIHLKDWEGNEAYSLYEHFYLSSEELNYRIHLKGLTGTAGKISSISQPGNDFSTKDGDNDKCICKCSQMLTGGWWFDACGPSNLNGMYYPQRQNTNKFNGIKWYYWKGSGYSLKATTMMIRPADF
Assay: competition ELISA: Tie-2 Fc coated on the plate, antibody varied, blocked ligand binding is Biotin Ang2 to Tie-2 Fc, streptavidin HRP, O.D. 450 nm
Protocol: The following day, plates were blocked for 1 hour at room temperature with 200 μl of phosphate buffered saline (PBS) (Invitrogen, Carlsbad, Calif.) containing 0.5% bovine serum albumin (BSA) (Sigma, St. Louis, Mo.) and 0.1% Tween-20 (Sigma, St. Louis, Mo.). Plates were washed 3 times with wash buffer (PBS containing 0.05% Tween-20). […] Plates were washed 3 times with wash buffer. Following the wash, 100 ul of 1:5000 streptavidin HRP (Pierce, Rockford, Ill.) dilution in wash buffer were added and incubated for 1 hour at room temperature. Plates were washed 3 times with wash buffer. Plates were developed by adding 100 μl of TMB peroxidase substrate (KPL, Gaithersburg, Md.) for 5 minutes. The reaction was stopped by adding 100 μl/well of 1M phosphoric acid. Optical densities were measured at 450 nm with a microplate reader (Molecular Devices, Sunnyvale, Calif.).

B1: Ang-2 antibody 3.19.3 (antibody, V domains shown)
VH: QVQLVESGGGVVQPGRSLRLSCAASGFTFTNYGMHWGRQAPGKGLEWVAVISHDGNNKYYVDSVKGRFTISRDNSKNTLYLQMNSLRAEDTAVYYCAREGIDFWSGLNWFDPWGQGTLVTVSS
VL: EIVLTQSPGTLSLSPGERATLSCRASQSITGSYLAWYQQKPGQAPRLLICGASSWATGIPDRFSGSGSGTDFTLTISRLEPEDFAVYYCQQYSSSPITFGQGTRLEIKR
notes: Fully human monoclonal antibody; also called WT
IC50 (read off the curve): ~0.1 µg/mL and ~0.2 µg/mL
